Source: patent US7943337B2, “Method for screening a protease” (Asahi Kasei Pharma Corporation, priority 2003, dated 2011)
Each block holds one molecule with its values, some of them ahead of it.

Experiments:
Format in all cases: biochemical
[1] = Substrate specificity of ketoamine oxidases; conditions: for absorbance difference (A1 − Ab): pH 7.5, 37° C., 5 minutes, 555 nm; for relative activity: FVH = 100 (FOD2: FZK = 100)
Procedure: (§1) Determination was performed by the same method described in <Reference Example: Substrate Specificity of Ketoamine Oxidase derived from Curvularia clavata YH923 (FERM BP-10009), Ketoamine Oxidase derived from Neocosmospora vasinfecta 474, and Ketoamine Oxidase derived from Fusarium oxysporum (manufactured by Asahi Kasei Pharma)>.

[2] = pH dependency of specific activity (FZK/FVH)
Procedure: (§2) 20 μl of an enzyme solution was added to 200 μl of a reaction solution (50 mM buffer, 0.1% Triton X-100, 0.03% 4-aminoantipyrine, 0.02% TOOS, 5 U/ml peroxidase, 2 mM substrate). The whole was incubated at 37° C. for 5 minutes and then 500 μl of 0.5% SDS was added thereto followed by determining absorbance at 555 nm. Tris-HCl (pH 7.5, 8.0, 8.5), PIPES (pH 6.0, 6.5, 7.0), and Bistris-HCl (pH 5.0, 5.5, 6.0, 6.5) were used as the buffers for determination. Also, absorbance was determined using a reaction solution containing no substrates. Differences in the absorbance when FVH and FZK each were used as a substrate and concentrations of the enzyme in the enzyme solution to be used are described in Table 18.

[3] = Specificity of mutant ketoamine oxidase to various substrates; conditions: Table 17; FVH = 100
Procedure: 100 μl of a preliminary sterilized expression medium (a medium containing 3% of sorbitol, 1.5% of polypeptone, 1.5% of yeast extract, and 50 μg/ml of ampicillin and adjusted to pH 7.0) was added to a 96-well microplate. Grown transformants were inoculated thereto and cultured overnight at 30° C. After the termination of the culture, each 5 μl of the culture solution was dispensed into two wells of a 96-well plate and 50 μl of a determination reagent (a 50 mM Tris-HCl buffer (pH 7.5) containing 1 mM FVH or FZK, 0.02% TOOS, 0.02% 4-aminoantipyrine and 10 U/ml peroxidase) was added to each well, and a reaction was carried out at 30° C. for 10-60 minutes. 150 μl of 0.5% SDS was added thereto to terminate the reaction and absorbance was determined at 550 nm using a Microreader (model 450, manufactured by Bio-Rad). From the constructed mutant library, a recombinant which produces ketoamine oxidase that act on FVH but has a decreased activity on FZK was selected. As a result of the screening, 923-F1 and 923-F2 were obtained as favorable mutant strains. Ketoamine oxidase genes harbored by those mutant strains were sequenced and resulted that mutations were introduced in the bases indicated by Table 15.
Note that, concentration of each substrate was set to be 1 mM and other reaction conditions were set according to the activity determination method described in <Screening of Mutant Ketoamine Oxidase having Decreased Action on FZK>.
Ketoamine oxidase derived from Neocosmospora vasinfecta 474 (FOD474) has high homology to ketoamine oxidases containing FOD923 and its amino acid sequence at an N-terminal region containing 158 of FOD923 is highly conserved as shown in FIG. 1. Using pPOSFOD474, FOD474 mutant strain 474-F1 in which 158 of FOD474 is substituted by a different amino acid (threonine) was acquired. […] 58 is a site that strongly affect on the specificity to FVH even in a case of a ketoamine oxidase derived from other microorganism species.

[4] = Substrate specificity of ketoamine oxidases; conditions: for absorbance difference (A1 − Ab): pH 7.5, 37° C., 5 minutes, 555 nm; for relative activity: FVH = 100 (FOD2: FZK = 100); remark: listed apart in the source
Procedure: The phrase “reactivity of a ketoamine oxidase to ε-1-deoxyfructosyl-(α-benzyloxycarbonyl-L-lysine) (hereinafter also referred to as FZK) is 5% or less compared with that to 1-deoxyfructosyl-L-valyl-L-histidine (hereinafter also referred to as FVH)” refers to the fact that the rate of the reactivity is 5% or less, which is determined by the following steps: adding 20 μl of a ketoamine oxidase solution to 200 μl of a reaction solution (50 mM Tris-HCl buffer (pH 7.5), 0.1% Triton X-100, 0.03% 4-aminoantipyrine, 0.02% TOOS, 5 U/ml peroxidase, and 2 mM FZK or FVH); allowing the mixture to react at 37° C. for 5 minutes; adding 0.5 ml of 0.5% SDS; determining an absorbance at 555 nm (A1); performing the same operations using a reaction solution containing no FZK and FVH to determine an absorbance (Ab); and determining the reactivity from the difference (A1−Ab).
as §1

[5] = pH dependency of activity of ketoamine oxidase
Procedure: as §2

[6] = Reaction for releasing fructosyl valine from FVHL by angiotensin-converting enzyme; conditions: 20 U/ml enzyme solution, 2 mM FVHL, 37° C., 1 hour; 730 nm
Procedure: Then, 200 μl of a coloring solution (50 mM Tris-HCl (pH 7.5), 0.1% Triton X-100, 5 U/ml POD, 50 U/ml FOD2, and 0.02 mM DA-64) was added to each resultant, and the mixture was allowed to react at 37° C. for 5 minutes. Thereafter, 500 μl of 0.5% SDS was added to terminate the coloring reaction, and the absorbance at 730 nm was determined. The same reaction was performed except that distilled water was used instead of the 2 mM FVHL solution. Meanwhile, 200 μl of the coloring solution was added to 40 μl of an FV solution (0, 5, 10, 20, or 50 μM), and determination was performed in the same way as above.

specificity, substrate FV [3]: 540
specificity, substrate FVH [3]: 100
specificity, substrate FZK [3]: 40
difference in absorbance, substrate FVH ([5]; Bistris pH 5.0): 0.023
difference in absorbance, substrate FZK ([5]; Bistris pH 5.0): 0.012
difference in absorbance, substrate FVH ([5]; Bistris pH 5.5): 0.084
difference in absorbance, substrate FZK ([5]; Bistris pH 5.5): 0.022
difference in absorbance, substrate FVH ([5]; Bistris pH 6.0): 0.187
difference in absorbance, substrate FZK ([5]; Bistris pH 6.0): 0.042
difference in absorbance, substrate FVH ([5]; Bistris pH 6.5): 0.273
difference in absorbance, substrate FZK ([5]; Bistris pH 6.5): 0.063
difference in absorbance, substrate FVH ([5]; PIPES pH 6.0): 0.265
difference in absorbance, substrate FZK ([5]; PIPES pH 6.0): 0.066
difference in absorbance, substrate FVH ([5]; PIPES pH 6.5): 0.303
difference in absorbance, substrate FZK ([5]; PIPES pH 6.5): 0.093
difference in absorbance, substrate FVH ([5]; PIPES pH 7.0): 0.243
difference in absorbance, substrate FZK ([5]; PIPES pH 7.0): 0.132
difference in absorbance, substrate FVH ([5]; Tris pH 7.5): 0.163
difference in absorbance, substrate FZK ([5]; Tris pH 7.5): 0.162
difference in absorbance, substrate FVH ([5]; Tris pH 8.0): 0.104
difference in absorbance, substrate FZK ([5]; Tris pH 8.0): 0.200
difference in absorbance, substrate FVH ([5]; Tris pH 8.5): 0.063
difference in absorbance, substrate FZK ([5]; Tris pH 8.5): 0.210
B1: FOD474: ketoamine oxidase of Neocosmospora vasinfecta 474 that reacts with FVH, expressed in Escherichia coli (protein, listed as Neocosmospora vasinfecta)
chain: MTTPRKETTVLIIGGGGTIGSSTALHLLRAGYTPSNITVLDTYPIPSAQSAGNDLNKIMGIRLRNKVDLQLSLEARDMWRNDALFRPFFHNTGRLDCESSAEGVEGLRREYQKLVEAGVGLEETHEWLDSEEAILEKAPLLQREEIEGWKAIWSEEGGWLAAAKAINAIGEELQRQGVRFGFGGAGSFKRPLFADDGTTCIGVETVDGTQYHADKVVLAAGAWSPALVDLEEQCCSKAWVYAHMQLTPEEAAVYKGCPVVYHGDVGFFFEPNENGVIKVCDEFPGFTRFKQHQPYGAPAPKPVSVPRSHAKHPTDTYPDASEESIKRAVSTFLPRFKDKPLFNRALCWCTDTADSALLICEHPRWKNFILATGDSGHSFKLLPIIGKHVVELVEGRLADDLAEAWRWRPGQGDARKSIRAAPAKDLADMPGWKHDQDSESR
modifications: CDS (1)..(1323)
notes: ketoamine oxidase of Neocosmospora vasinfecta 474 that reacts with FVH, expressed in Escherichia coli
absorbance difference (A1 − Ab) ([1]; 2 mM FV): 0.289
absorbance difference (A1 − Ab) ([1]; 2 mM FVHL): 0.002
absorbance difference (A1 − Ab) ([1]; 2 mM FVHLT): 0.002
absorbance difference (A1 − Ab) ([1]; 2 mM FVL): 0.059
absorbance difference (A1 − Ab) ([1]; 2 mM α-glycated pentapeptide): 0.003
absorbance difference (A1 − Ab) ([1]; 2 mM β-glycated pentapeptide): 0.002
relative activity ([1]; substrate FV): 445%
relative activity ([1]; substrate FVHL): 0%
relative activity ([1]; substrate FVHLT): 0%
relative activity ([1]; substrate FVL): 0.91%
relative activity ([1]; substrate α-glycated pentapeptide): 0%
relative activity ([1]; substrate β-glycated pentapeptide): 0%
specific activity (FZK/FVH) ([2]; Bistris pH 5.0): 10.4%
specific activity (FZK/FVH) ([2]; Bistris pH 5.5): 5.2%
specific activity (FZK/FVH) ([2]; Bistris pH 6.0): 4.9%
specific activity (FZK/FVH) ([2]; Bistris pH 6.5): 4.6%
specific activity (FZK/FVH) ([2]; PIPES pH 6.0): 5.0%
specific activity (FZK/FVH) ([2]; PIPES pH 6.5): 6.1%
specific activity (FZK/FVH) ([2]; PIPES pH 7.0): 10.9%
specific activity (FZK/FVH) ([2]; Tris pH 7.5): 19.9%
specific activity (FZK/FVH) ([2]; Tris pH 8.0): 38.5%
specific activity (FZK/FVH) ([2]; Tris pH 8.5): 66.7%
absorbance difference (A1 − Ab) ([4]; 2 mM FVH): 0.221
absorbance difference (A1 − Ab) ([4]; 2 mM FZK): 0.032
relative activity ([4]; substrate FVH): 100%
relative activity ([4]; substrate FZK): 15%

absorbance difference showing FV released [6]: −0.006
B2: ACEP: angiotensin-converting enzyme derived from porcine kidney (manufactured by Sigma Corporation) (protein, UniProt F1RRW5 34-1309, looked up)
Angiotensin-converting enzyme: LDSALQPGNFTADEAGAEDFAQSFNSSSEQVLFQSTAASWAHDTNITEENARRQEEAALISQEFSEVWGQKAKALYDPIWQNFTSRTLRRIIGVVRTLGSANLSPAKRQQYNSLLSNMTRIYSTAKVCFPNKTATCWSLDPELTNILATSRSYTLLLYAWEGWHNAAGIPLKPLYQDFTALSNEAYKQDGFSDTGAYWRSLYDSPTFTEDLERLYHQLEPLYLNLHAYVRRALHRQYGDRFINLRGPIPAHLLGNMWAQSWNNIYDMVVPFPGKPSLDVTSAMVQKGWNVTHMFRVAEEFFTSLGLLPMPPEFWAESMLEKPSDGREVVCHASAWDFYNRKDFRIKQCTQVTMDQLSTVHHEMGHVQYYLQYKDQHVSLRRGANPGFHEAIGDVLALSVSTPAHLHKIGLLDHVTSDWESDINYLLKMALEKIAFLPFGYLVDQWRWGVFSGRTPPLYNYDWWYLRTKYQGVCPPVVRNETHFDAGAKYHVPNVTPYIRYFVSFILQFQFHQALCKEAGHQGPLHQCDIYQSTRAGAKLRAVLQAGSSRPWQEVLKDMVGSGALDAQPLLDYFQPVTQWLEEQNQRSGDILGWPEYQWRPPMPDNYPEGIDLVSDEAEASKFVEEYDRRSQVVLNEYAEANWDYNTNITAEGSKRVLEKSTQMANHTVKYGIWARKFDVANIQNFTLKRMIKKIQDLERAALPFKELEEYNQILLDMETAYSVASVCHANSTCLQLEPDLTNLMATSRSYEELLWAWKGWRDKVGRAILPYFPKYVELTNKAARLNGYEDGGDAWRAAYEMPFLEQELEQLFQELQPLYLNLHAYVRRALHHHYGPEHINLEGPIPAHLLGNMWAQTWSNIYDLVVPFPSASKMDASEAMINQGWTPQRMFKEADNFFTSLGLLPVPPEFWNKSMLEKPTDGREVVCHASAWDFFNGKDFRIKQCTTVNMEDLVVAHHEMGHIQYFMQYKDLPVTFREGANPGFHEAIGDVLALSVSTPKHLRSINLLKSEDDGYEEDINFLMKMALDKVAFVPFSYLVDQWRWRVFDRSITKENYNQEWWSLRLKYQGLCPPVARSQGDFDPGAKFHIPSSVPYIRYFVSFIIQFQFHEALCQAAGHKGPLHKCDIYQSKEAGRRLADAMKLGLSKPWPEAMQLITGQPNVSASAMMTYFKPLLDWLVTENGRHGEKLGWPQYNWTPNSARLEGSFAGTGRVNFLGLNLEEQQARVGQWVLLFLGVTLLVATMGLTQRLFSIRHQILRRTHRGPQFGSEVELRHS
